# Data reported in patent US5416015A, “Isolated genes encoding peptidyl prolyl-cis.trans-isomerase and plasmids comprising said genes” (Tonen Corporation, priority 1989, dated 1995).
# B1: recombinant enzyme: E. coli PPIase-β produced by E. coli HB101 transformed with expression plasmid pATtrp EPPIb (protein, UniProt P23869 1-164, looked up)
# Peptidyl-prolyl cis-trans …: MVTFHTNHGDIVIKTFDDKAPETVKNFLDYCREGFYNNTIFHRVINGFMIQGGGFEPGMKQKATKEPIKNEANNGLKNTRGTLAMARTQAPHSATAQFFINVVDNDFLNFSGESLQGWGYCVFAEVVDGMDVVDKIKGVATGRSGMHQDVPKEDVIIESVTVSE
# Test: Specific activity of enzyme (PPIase activity measurement)
# Type: biochemical
# Settings: recombinant E. coli PPIase-β, FIG. 26
# Description: As a result, the specific activity of the natural enzyme was.51,480 arbitrary units/[…] 1 unit, while that of the recombinant enzyme was 52,876 arbitrary units/A280 1 unit. Thus, no distinction could be made on specific activity (FIG. 26).
molecule,measurement,value
B1,specific activity,"52,876 arbitrary units/A280 1 unit"
